Experimental data as given in the Human Domainome abundance scans (Beltran et al. 2025).

B1: Tyrosine-protein kinase Lck, residues 63 to 120; numbered along this chain, P06239 (parent)
chain: DNLVIALHSYEPSHDGDLGFEKGEQLRILEQSGEWWKAQSLTTGQEGFIPFNFVAKAN
B2: REST corepressor 3, residues 87 to 134; numbered along this chain, Q9P2K3 (parent)
chain: DEWTVEDKVLFEQAFSFHGKSFHRIQQMLPDKTIASLVKYYYSWKKTR

Variants of: B1
Assay: abundance fitness (aPCA) (normalised: wild type 0, dead -1); higher = more abundant; growth selection in yeast, the domain comes from the species named
Settings: Homo sapiens

Abundance fitness, by site and new letter:
G19: I -0.538, D -0.648, Q -0.256, T -0.375, F -0.567, C -0.16, Y -0.55, L -0.604, K -0.108, M -0.31, E -0.393, N -0.397, V -0.47, A -0.039, P -0.16, H -0.299, R -0.142, W -0.823
E11: D -0.116, F -0.214, P -0.409, M -0.409, Y -0.363, S -0.16, W -0.435, R -0.145, Q -0.199, V -0.05, I -0.177, C -0.21, G -0.431, K 0.206, N -0.171, A -0.137, L -0.164, T 0.064, H -0.156
H14: N 0.12, F -0.187, Y -0.165, R 0.039, E -0.051, S -0.031, L -0.267, G -0.059, K 0.072, I -0.118, W -0.328, Q -0.079, V -0.104, D -0.219, P -0.793, A 0.027, C -0.033
L3: I 0.091, W -0.232, V -0.212, T -0.019, N -0.159, F -0.304, Q -0.122, D -0.503, S -0.343, A -0.79, H -0.486, Y -0.113, G -0.768, C -0.273, R -0.178, M -0.094, P -0.74
V4: L -0.04, T -0.325, R -0.29, M -0.173, N -0.727, F -0.054, G -0.431, A 0.123, H -0.073
D1: N -0.115, P -0.827, T -0.335, A -0.337, W -0.331, L -0.487, M -0.334, G -0.115, V -0.519, Y -0.224, E -0.036
I5: M -0.26
P12: D -0.439, F -1.08, V -0.717, R -0.705, T -0.529, S -0.366, Y -0.525, C -0.387, E -0.755, L -0.913, H -0.846, G -0.497, I -0.506, Q -1, K -0.471, N -0.557
F20: A -0.52, D -0.845, P -0.818, V -0.222, S -0.949, K -0.705, N -0.7, Y -0.756, H -0.836, I -0.47, Q -0.825, R -0.976, C -0.541, M -0.293, L -0.411, W -1.04, T -0.406, G -0.921
H8: T -0.012, Q -0.086, D 0.003, K 0.285, G -0.295, S -0.078, C -0.131, P -0.79, V -0.227, E -0.096, I -0.262, N -0.001, R 0.034, L -0.285, A -0.067
A6: E -0.857, H -0.756, V -0.556, W -1.2, T -0.113, C -0.217, Q -0.84, F -0.907, N -0.956, P -0.897, K -0.933, Y -0.99, M -0.637, L -0.845, D -0.907, I -0.772, S -0.348, G -0.212
N2: D -0.193, W -0.526, R -0.32, P -0.713, Y -0.243, S -0.128, M -0.075, F 0.034, H 0.146, E -0.541, L -0.185, C -0.309, I -0.094, G -0.428, V -0.851, Q -0.174, T -0.157
L18: I -0.176, S -0.884, F -0.449, E -0.757, H -0.732, V -0.441, Q -0.876, D -0.779, M -0.295, K -0.946, N -0.722, W -0.978, Y -0.725, T -0.714, G -0.717, R -0.86, C -0.898, A -0.591
Y10: F -0.241, L -0.488, V -0.485, C -0.415, I -0.619, H -0.087, D -0.511, G -0.717, R -0.289, N -0.587, K -0.113, M -0.444, T -0.604, W -0.019, A -0.671, S -0.662, P -0.673
S13: Y -0.18, V -0.097, T 0.047, C -0.047, E -0.096, A -0.177, G -0.251, I -0.215, N -0.061, P -0.358, Q -0.034, M -0.026, H -0.174, F -0.412, D -0.062, K 0.171
K22: I -0.526, A -0.174, G -0.674, F -0.603, C -0.303, H -0.593
D17: G -0.042, H 0.011, L -0.116, V -0.111, C -0.022, N -0.177, S -0.045, A -0.006, F -0.229, M -0.022, T -0.255, R -0.009, W -0.083, K 0.051, P -0.762, E 0.063
E21: L -0.11, G -0.349, Q 0.007, T -0.129, F -0.515, W -0.481, N -0.248, Y -0.415, V 0.022, P -0.914, M -0.134, R -0.052, S -0.042, D -0.205, A -0.062, H -0.001
D15: M -0.225, Q -0.02, A -0.046, P -0.075, T -0.124, K 0.111, H -0.071, R -0.053, G -0.196, V -0.273, C -0.196, W -0.461, Y -0.071, L -0.106, I -0.225, F -0.148
G16: Y -0.218, P -1.03, A -0.366, M -0.259, K -0.362, T -0.152, I -0.322, F -0.309, C -0.241, E -0.247, S -0.174, H -0.114, V -0.328
L7: S -0.21, V -0.161, A -0.249, P -0.38, K -0.232, Q -0.131, D -0.486, M -0.097, Y -0.54, T -0.224, E -0.217, C -0.357, F -0.705, R -0.298, I -0.079, H -0.429, N -0.602
S9: H -0.254, I -0.888, F -0.798, A -0.235, R -0.11, W -0.923, G -0.116, T -0.046, Q -0.276, N 0.045, C -0.25, M -0.473, E -0.218, P -0.166, L -0.84, V -0.676, Y -0.619, K 0.017

Variants of: B2
Assay: as above
Settings: Homo sapiens

Abundance fitness, by site and new letter:
T47: V -0.752, W -0.542
R48: G 0.024, E 0.016, L 0.326
